The series addresses T1, ScbR (Streptomyces coelicolor A3(2) M145) (UniProt Q7AKF1).
T1 sequence: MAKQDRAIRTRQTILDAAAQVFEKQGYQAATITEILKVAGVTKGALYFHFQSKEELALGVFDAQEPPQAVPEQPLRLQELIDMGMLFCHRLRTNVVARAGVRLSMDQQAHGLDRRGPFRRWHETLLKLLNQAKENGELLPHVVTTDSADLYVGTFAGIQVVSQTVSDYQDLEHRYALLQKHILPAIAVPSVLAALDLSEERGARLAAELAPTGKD
The series is described as follows: DNase I footprinting. As to conditions: EMSA: 6-12 ng probe, ScbR 0.21-3.77 uM, ScbR2 0.207-4.15 uM; buffer, salt, pH and temperature not in material (as described in earlier work).

Turning to “CCCTCATGTCCGAACAGCTCGACACCGCCGTCGAAACAGACGGCAAGGGCGACCTCGCCACGTTGTTCAACGGTGGGGACACCTTCTCCCATTGAAAACCGGCGAGGAGGTTTGTTAATCCCATGTTCCCTGGACCGACCTGTTTCGAGATCGAGGAGGACAGTTGAGCGCCACTTCTGCCCCCGCACCCCAGCACGGCATGACCTGGCTGGGAGCCATCGTGGAGGACGGCTTCACGGAGACGTTGCAGGACGGGCTCAG (double strand) [sco6268 promoter footprint probe]”, the binding entry is listed as “binds”.
